Positions count from the first letter of the chain named. Names may count otherwise.
Experiments:
[1] = molecular target: T1, recombinant human VEGF-R2-Fc (R&D Systems cat#357-KD) (human, UniProt P35968 20-764); assay: direct binding ELISA on coated recombinant human VEGF-R2-Fc (Example 1.22)
T1 construct: Bought reagent; also called hVEGFR2-Fc; hVEGF-R2 (KDR/Flk-1); not shown: Fc part of the bought fusion protein
Experimental: Plates were then washed four times with wash buffer (TBS, 0.05% Tween-20) and blocked with Superblock blocking buffer (Thermo Scientific, cat#37535). […] Following incubation, plates were washed four times with wash buffer. […] Plates were washed four times with wash buffer and developed with the addition of Enhanced K-blue TMB substrate (Neogen cat#308177). The reaction was stopped with 2N sulfuric acid (VWR, cat# BDH3500-1) and the absorbance was read at 450 nm-570 nm. […] Data was analyzed using Softmax Pro 4.8 software and IC₅₀ values calculated using a sigmoidal dose response (variable slope) fit in GraphPad Prism 5.

[2] = molecular target: T2, recombinant human VEGF165 (human, UniProt P15692 207-395); assay: cell-based or functional assay
T2 sequence (P15692 other isoform, or with tags, fused parts or gaps limits assumed): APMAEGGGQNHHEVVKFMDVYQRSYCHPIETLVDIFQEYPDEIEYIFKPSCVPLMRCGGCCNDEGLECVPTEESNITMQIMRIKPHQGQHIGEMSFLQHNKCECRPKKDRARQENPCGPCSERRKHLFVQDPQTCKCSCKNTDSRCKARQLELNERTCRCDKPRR

[3] = molecular target: T3, recombinant human PDGF-BB (human, UniProt P01127 82-190); assay: cell-based or functional assay
T3 sequence (P01127 82-190 limits assumed): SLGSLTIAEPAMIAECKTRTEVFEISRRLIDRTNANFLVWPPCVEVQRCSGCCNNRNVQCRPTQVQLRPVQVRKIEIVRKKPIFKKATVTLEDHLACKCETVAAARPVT

[4] = molecular target: T3, recombinant human PDGF-BB; assay: competition ELISA: DVD-Ig titrated against biotinylated hPDGF-BB binding to coated hPDGF-Rbeta-Fc
Experimental: (§1) Plates were then washed four times with wash buffer (TBS, 0.05% Tween-20) and blocked with Superblock blocking buffer (Thermo Scientific, cat#37535). During the blocking step, supernatants, antibodies, benchmark compounds or DVD-Ig were diluted in assay diluent (10% Superblock containing 0.05% surfactamps) and an eight point titration of each sample molecule was performed. […] Following incubation, plates were washed four times with wash buffer. Detection reagent Streptavidin-polyHRP-40 (Fitzgerald, cat#65r-s104phrp) was diluted in assay diluent and added to plates (50 μL) for 45 minutes at 25° C. with shaking. Plates were washed four times with wash buffer and developed with the addition of Enhanced K-blue TMB substrate (Neogen, cat#308177). The reaction was stopped with 2N sulfuric acid (VWR, cat# BDH3500-1) and the absorbance was read at 450 nm-570 nm. […] Data was analyzed using Softmax Pro 4.8 software and IC₅₀ values calculated using a sigmoidal dose response (variable slope) fit in GraphPad Prism 5.

[5] = molecular target: T2, recombinant human VEGF165; assay: competition ELISA: DVD-Ig titrated against biotinylated hVEGF165 binding to coated hVEGFR2-Fc
Experimental: To identify molecules that could block the binding of hVEGF₁₆₅ to the hVEGF-R2 (KDR/Flk-1) receptor, a competition ELISA was performed. […] Plates were then washed four times with wash buffer (TBS, 0.05% Tween-20) and blocked with Superblock blocking buffer (Thermo Scientific, cat#37535). […] The pre-incubated sample/hVEGF₁₆₅ complex was added to the coated plate at 50 μL in duplicate and incubated for 30 minutes at 25° C. with shaking. Following incubation, plates were washed four times with wash buffer. Streptavidin-polyHRP-40 (Fitzgerald cal#65r-s104phrp) was diluted in assay diluent (10% Superblock containing 0.05% surfactamps) and added to plates (50 μL) for 45 minutes at 25° C. with shaking. Plates were washed four times with wash buffer and developed with the addition of Enhanced K-blue TMB substrate (Neogen cat#308177). The reaction was stopped with 2N sulfuric acid (VWR, cat# BDH3500-1) and the absorbance was read at 450 nm-570 nm. A decrease in observed optical density indicates the test molecule is blocking the hVEGF₁₆₅ binding to the hVEGF-R2-Fc. Data was analyzed using Softmax Pro 4.8 software and IC₅₀ values calculated using a sigmoidal dose response (variable slope) fit in GraphPad Prism 5.

Human PDGF-BB [6] = molecular target: T4, Human PDGF-BB (human, UniProt P01127 82-190); assay: Biacore SPR (Example 1.1)
T4 construct: Recombinant human PDGF-BB, a dimer of two B chains; also called huPDGF-BB; hPDGF-BB
T4 sequence (P01127 82-190 limits assumed): as above
Experimental: (§2) Unreacted moieties on the biosensor surface were blocked with ethanolamine. For kinetic analysis, rate equations derived from the 1:1 Langmuir binding model were fitted simultaneously to multiple antigen injections (using global fit analysis) with the use of Scrubber 2 (BioLogic Software), Biacore Biaevaluation 4.0.1 software or Biacore T100 Evaluation software. Purified antibodies or DVD-Ig molecules were diluted in running buffer for capture across goat anti-human Fc reaction surfaces. Antibodies or DVD-Ig molecules to be captured as a ligand (1 μg/ml) were injected over reaction matrices at a flow rate of 10 μl/minute. During the assay, all measurements were referenced against the capture surface alone (i.e., with no captured antibody or DVD-Ig molecule). […] The equilibrium dissociation constant KD (M) of the reaction between antibodies and the target antigen was then calculated from the kinetic rate constants by the following formula: KD=Koff/Kₒₙ. Binding was recorded as a function of time and kinetic rate constants were calculated. In this assay, on-rates as fast as 10⁶M⁻¹s⁻¹ and off-rates as slow as 10⁻⁶ s⁻¹ could be measured.

Human PDGF-BB [7] = molecular target: T4, Human PDGF-BB; assay: Biacore SPR (Example 1.1); footnote **: heterogeneous off-rate
Experimental: as §2

Human PDGF-BB [8] = molecular target: T4, Human PDGF-BB; assay: cell-based or functional assay
Human PDGF-BB [9] = molecular target: T4, Human PDGF-BB; assay: competition ELISA: huPDGF-BB-biotin binding to coated huPDGF-Rβ-Fc (Example 1.13)
Experimental: as §1

Human PDGF-BB [10] = molecular target: T4, Human PDGF-BB; assay: Biacore SPR (Example 1.1); second of two rows for this clone
Experimental: as §2

Human PDGF-BB [11] = molecular target: T4, Human PDGF-BB; assay: Biacore SPR (Example 1.1); first of two rows for this clone
Experimental: as §2

T1 sequence (P35968 20-764 limits assumed): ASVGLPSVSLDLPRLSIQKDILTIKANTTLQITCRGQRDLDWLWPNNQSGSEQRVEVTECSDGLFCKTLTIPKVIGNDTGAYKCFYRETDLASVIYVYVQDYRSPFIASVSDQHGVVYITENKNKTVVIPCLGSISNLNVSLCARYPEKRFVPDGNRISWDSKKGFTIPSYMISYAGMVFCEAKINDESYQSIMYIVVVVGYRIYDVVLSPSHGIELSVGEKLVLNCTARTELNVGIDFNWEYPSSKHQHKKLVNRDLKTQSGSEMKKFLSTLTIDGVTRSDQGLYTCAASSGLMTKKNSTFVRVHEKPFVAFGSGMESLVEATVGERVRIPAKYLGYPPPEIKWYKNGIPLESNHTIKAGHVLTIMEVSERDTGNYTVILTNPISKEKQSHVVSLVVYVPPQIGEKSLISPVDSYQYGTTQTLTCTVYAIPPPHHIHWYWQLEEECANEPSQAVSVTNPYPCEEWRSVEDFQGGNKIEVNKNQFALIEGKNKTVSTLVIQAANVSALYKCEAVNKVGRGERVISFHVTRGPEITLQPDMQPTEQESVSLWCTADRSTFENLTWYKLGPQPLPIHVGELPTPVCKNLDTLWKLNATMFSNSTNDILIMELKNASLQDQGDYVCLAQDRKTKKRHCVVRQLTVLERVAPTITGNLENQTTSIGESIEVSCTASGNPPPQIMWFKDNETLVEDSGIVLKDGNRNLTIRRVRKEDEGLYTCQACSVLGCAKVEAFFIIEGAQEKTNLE

B1: BCU-7A6-C2 (antibody, V domains shown)
VH: EVQLVESGGGLVQPRGSLKLSCAASGFDFNSYGMSWVRQAPGKGLDLVADISSKSYNYATYYADSVKDRFTISRDDSQSMVYLQMDNLKTEDTALYYCTESLELGGAYWGQGTLVTVSS
VL: DIQMTQSPPSLSASLGDEVTITCQASQNINKFIAWYQQKPGKAPRLLIRYTSTLKSGTPSRFSGSGSGRDYSFSISNVESEDIASYYCLQYDSLPWTFGGGTKLELK
notes: Rat hybridoma anti-human VEGFR II monoclonal antibody, isotype IgG2b/κ
B1: binds [1].

B2: 4G8.3-SL-9E8.4 (g) DVD-Ig (PR-1572105) (bispecific antibody, human IgG1, kappa, L234A L235A)
heavy: EVQLVQSGSELKKPGASVKVSCKASGYTFTNYGMYWVRQAPGQGLEWMGWINTETGKPTYADDFKGRFVFSLDTSVSTAYLQISSLKAEDTAVYYCARTNYYYRSYIFYFDYWGQGTMVTVSSASTKGPEVTLRESGPALVKPTQTLTLTCTFSGFSLSTYGMGVGWIRQPPGKALEWLANIWWDDDKYYNPSLKNRLTISKDTSKNQVVLTMTNMDPVDTATYYCARIESIGTTYSFDYWGQGTMVTVSSASTKGPSVFPLAPSSKSTSGGTAALGCLVKDYFPEPVTVSWNSGALTSGVHTFPAVLQSSGLYSLSSVVTVPSSSLGTQTYICNVNHKPSNTKVDKKVEPKSCDKTHTCPPCPAPEAAGGPSVFLFPPKPKDTLMISRTPEVTCVVVDVSHEDPEVKFNWYVDGVEVHNAKTKPREEQYNSTYRVVSVLTVLHQDWLNGKEYKCKVSNKALPAPIEKTISKAKGQPREPQVYTLPPSREEMTKNQVSLTCLVKGFYPSDIAVEWESNGQPENNYKTTPPVLDSDGSFFLYSKLTVDKSRWQQGNVFSCSVMHEALHNAYTQKSLSLSPGK
light: DTVLTQSPATLSLSPGERATLSCRASESVSTHMHWYQQKPGQAPRLLIYGASNLESGVPARFSGSGSGTDFTLTISSLEPEDFAVYFCQQSWNDPFTFGQGTKLEIKRTVAAPSVFIFPPEFVLTQSPGTLSLSPGERATLSCERSSGDIGDSYVSWYQQKPGQAPRLVIYADDQRPSGIPDRFSGSGSGTDFTLTISRLEPEDFAVYYCQSYDINIDIVFGGGTKVEIKRTVAAPSVFIFPPSDEQLKSGTASVVCLLNNFYPREAKVQWKVDNALQSGNSQESVTEQDSKDSTYSLSSTLTLSKADYEKHKVYACEVTHQGLSSPVTKSFNRGEC
notes: DVD-Ig, outer hBDB-4G8.3 (VEGF), inner hBDI-9E8.4 (PDGF); IgG1 L234A, L235A, H435A / kappa; also called DVD-Ig-3
In the case of B2, the “HMVEC-d hVEGF165 Potency IC50” value [2] is reported as 0.347 nM, the “NIH-3T3 hPDGF-BB Potency IC50” value [3] is reported as 0.29 nM and the IC50 [4] is reported as > 5 nM. The IC50 [5] was 0.111 nM.

B3: BCU-3D6-C9 (antibody, V domains shown)
VH: QIQLVQSGPELKKPGESVKISCKASEYTFTDYAIHWVKQAPGKGLKWMGWINTYTGKPTYADDFKGRFVFSLEASASTANLQISNLKNEDTATYFCARDYGGYGERRDYFDYWGQGVMVTVSS
VL: DIQMTQSPASLSASLGETVTIECRVSEDIYNGLAWYQQKPGKSPQFLIYNANRLHTGVPSRFSGSGSGTQFSLKINSLQSEDVANYFCQQYYDYPLTFGSATKLEIK
notes: Rat hybridoma anti-human VEGFR II monoclonal antibody
B3: binds [1].

B4: BDI-6A3-A9 (antibody, V domains shown)
VH: EVQLVESGGGLVQPGRSLKFSCAASGFSFSDSAMAWVRQAPKKGLEWVATIIYDGSGTYYRDSVKGRFTISRDNAKSTLYLQMDSLRSEDTATYYCARLGFNYGNYGYYVMDAWGQGASVTVSS
VL: QFTLTQPKSVSGSLRNTITIPCERSSGDIGDSYVSWYQQHLGRPPINVIFADDQRPSEVSDRFSGSIDSSSNSASLTITNLQMDDEADYFCQSYDSNIDINIVFGGGTKLTVL
B4 was tested, and the kon (Human PDGF-BB [6]) was ≥ 1e+07 M⁻¹ s⁻¹ and the Kd (Human PDGF-BB [7]) was ≤ 0.67 nM.

B5: BFU-3E2-B9-B8 (antibody, V domains shown)
VH: EVQLQQSGPELQRPGASVKLSCKASGYTFTESYMYWVKQRPEQSLELIGRIDPEDGSTDYVEKFKNKATLTADTSSNTAYMQLSSLTSEDSATYFCARFGARSYFYPMDAWGQGTSVTVSS
VL: DTVLTQPPALAVSPGERVSISCRASESVSTLMHWYQQKPGQQPRLLIYGASNLESGVPARFSGSGSGTDFTLTIDPVEADDTATYFCQQSWNDPWTFGGGTKLELK
B5 was tested, and the Kd (Human PDGF-BB [6]) was ≤ 0.15 pM, the kon (Human PDGF-BB [6]) was ≥ 1e+07 M⁻¹ s⁻¹ and the “Phospho-Tyr751/hPDGF-BB Neutralization” value (Human PDGF-BB [8]) was 0.642 nM. For the same binder, the “huPDGF-BB Neutralization Potency (nM) in NIH-3T3 Cells” value (Human PDGF-BB [8]) was 0.247 nM and the IC50 (Human PDGF-BB [9]) was > 50 nM.

B6: BFU-11A8-D6-C3 (antibody, V domains shown)
VH: B5 VH with M34I, S91T
VL: B5 VL with P7S, A9T, S21P
For B6, the Kd (Human PDGF-BB [6]) was ≤ 0.047 pM, the kon (Human PDGF-BB [6]) was 2.1e+07 M⁻¹ s⁻¹ and the “Phospho-Tyr751/hPDGF-BB Neutralization” value (Human PDGF-BB [8]) was 0.736 nM. The “huPDGF-BB Neutralization Potency (nM) in NIH-3T3 Cells” value (Human PDGF-BB [8]) was 0.344 nM and the IC50 (Human PDGF-BB [9]) was 7.09 nM.

B7: BDI-9E8-E7 (antibody, V domains shown)
VH: QVTLKESGPGILQPSQTLSLTCTFSGFSLSTYGMGVGWIRQPSGKGLEWLANIWWDDDKYYNPSLKNRLTISKDTSNNQAFLKITNVDTADTATYYCARIESIGTTYSFDYWGQGVMVTVSS
VL: QFTLTQPKSVSGSLRSTITIPCERSSGDIGDSYVSWYQQHLGRPPINVIYADDQRPSEVSDRFSGSIDSSSNSASLTITNLQMDDEADYFCQSYDINIDIVFGGGTKLTVL
In the case of B7, the Kd (Human PDGF-BB [10]) is reported as ≤ 0.1 pM, the kon (Human PDGF-BB [10]) is reported as ≥ 1e+07 M⁻¹ s⁻¹ and the Kd (Human PDGF-BB [11]) is reported as ≤ 0.058 pM. For the same binder, the kon (Human PDGF-BB [11]) was ≥ 1.7e+07 M⁻¹ s⁻¹.

B8: BDI-1E1-D5 (antibody, V domains shown)
VH: EVKLQQSGDELVRPGASVKMSCKASGYTFTDYVMHWVKQSPGQGLEWIGTIIPLIDTTSYNQKFKGKATLTADKSSNTAYMELSRLTSEDSAVYYCARTSPYYYSSYDVMDAWGQGASVTVSS
VL: NIQLTQSPSLLSASVGDRVTLSCKGSQNINNYLAWYQQKLGEAPKLLIYKTNNLQTGIPSRFSGCGSGTDYTLTISSLHSEDLATYYCYQYDNGYTFGAGTKLELK
For B8, the kon (Human PDGF-BB [6]) was ≥ 1e+07 M⁻¹ s⁻¹ and the Kd (Human PDGF-BB [7]) was ≤ 0.037 nM.
